Changes are numbered by the printed parent chain. In names and notes the source's numbering stands.
T1: Rab34 (Homo sapiens, UniProt Q9BZG1, Q111L)
T1 construct: full-length Rab34 from E. coli, preparatively loaded with GppNHp
T1 sequence (Q9BZG1 1-237 Q111L): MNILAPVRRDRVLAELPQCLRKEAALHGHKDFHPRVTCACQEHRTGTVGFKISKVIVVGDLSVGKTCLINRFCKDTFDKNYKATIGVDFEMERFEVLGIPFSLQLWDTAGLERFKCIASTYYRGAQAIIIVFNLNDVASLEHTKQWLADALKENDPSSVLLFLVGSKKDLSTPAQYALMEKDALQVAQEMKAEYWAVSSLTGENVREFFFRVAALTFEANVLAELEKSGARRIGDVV

T2: Rep15, full length (natural N101D variant) (human, UniProt Q6BDI9 1-236, N101D)
T2 sequence: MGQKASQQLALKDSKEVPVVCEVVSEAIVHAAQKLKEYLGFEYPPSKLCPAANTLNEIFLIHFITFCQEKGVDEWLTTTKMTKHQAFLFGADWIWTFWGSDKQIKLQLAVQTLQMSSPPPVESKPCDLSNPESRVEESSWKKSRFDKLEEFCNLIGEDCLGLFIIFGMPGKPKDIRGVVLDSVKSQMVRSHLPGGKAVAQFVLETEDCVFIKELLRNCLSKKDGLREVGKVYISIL

T3: Rab34 Q111L F114Y, purified (human, UniProt Q9BZG1 1-237, Q111L | F114Y)
T3 sequence: T1 sequence (Q9BZG1 1-237 Q111L) with F114Y

T4: Rab34 Q111L 1-237 (dominant active), purified, GTP-loaded (human, UniProt Q9BZG1 1-237, Q111L)
T4 construct: Rab34, human, residues 1-237 with Q111L; also called Rab34_(Q111L_1-237aa)
T4 sequence (looked up): T1 sequence (Q9BZG1 1-237 Q111L)

B1: Rab3A Y84F, purified (natural protein)
chain: MASATDSRYGQKESSDQNFDYMFKILIIGNSSVGKTSFLFRYADDSFTPAFVSTVGIDFKVKTIYRNDKRIKLQIWDTAGQERFRTITTAYYRGAMGFILMYDITNEESFNAVQDWSTQIKTYSWDNAQVLLVGNKCDMEDERVVSSERGRQLADHLGFEFFEASAKDNINVKQTFERLVDVICEKMSESLDTADPAVTGAKQGPQLSDQQVPPHQDCAC
B2: Rab3A V61N, purified (natural protein, human, UniProt P20336 1-220, looked up)
chain: B1 chain with V61N, F84Y
notes: Rab3A, human, with V61N; Tag as told for the 6His-tagged Rab3 paralogs in general; source: E. coli BL21 Codon-Plus (DE3)-RIL, purified
B3: Rep15, full length (natural N101D variant) (natural protein, human, UniProt Q6BDI9 1-236, looked up)
chain: T2 sequence
notes: also called full-length Rep15; Rab15 effector protein
B4: Rab3D, purified, GppNHp-loaded (natural protein, human, UniProt O95716 1-219, looked up)
chain: MASAGDTQAGPRDAADQNFDYMFKLLLIGNSSVGKTSFLFRYADDSFTPAFVSTVGIDFKVKTVYRHDKRIKLQIWDTAGQERYRTITTAYYRGAMGFLLMYDIANQESFAAVQDWATQIKTYSWDNAQVILVGNKCDLEDERVVPAEDGRRLADDLGFEFFEASAKENINVKQVFERLVDVICEKMNESLEPSSSSGSNGKGPAVGDAPAPQPSSCSC
notes: Rab3D, human; source: E. coli BL21 Codon-Plus (DE3)-RIL, purified (Ni Sepharose, TEV cleavage, gel filtration)
B5: Rab15, purified, nucleotide-loaded (natural protein, human, UniProt P59190 1-212, looked up)
chain: MAKQYDVLFRLLLIGDSGVGKTCLLCRFTDNEFHSSHISTIGVDFKMKTIEVDGIKVRIQIWDTAGQERYQTITKQYYRRAQGIFLVYDISSERSYQHIMKWVSDVDEYAPEGVQKILIGNKADEEQKRQVGREQGQQLAKEYGMDFYETSACTNLNIKESFTRLTELVLQAHRKELEGLRMRASNELALAELEEEEGKPEGPANSSKTCWC
notes: Rab15, human; Loaded with GppNHp (aSEC, ITC) or mant-GppNHp / mant-dGppNHp (stopped flow); also called Rab15_(GppNHp); Rab15_(mant-GppNHp); source: E. coli BL21 Codon-Plus (DE3)-RIL, purified (Ni Sepharose, TEV cleavage, gel filtration)
B6: Rab3B, purified, GppNHp-loaded (natural protein, human)
chain: MASVTDGKTGVKDASDQNFDYMFKLLIIGNSSVGKTSFLFRYADDTFTPAFVSTVGIDFKVKTVYRHEKRVKLQIWDTAGQERYRTITTAYYRGAMGFILMYDITNEESFNAVQDWATQIKTYSWDNAQVILVGNKCDMEEERVVPTEKGQLLAEQLGFDFFEASAKENISVRQAFERLVDAICDKMSDSLDTDPSMLGSSKNTRLSDTPPLLQQNCSC
notes: Rab3B, human; also called Rab3B_(GppNHp); source: E. coli BL21 Codon-Plus (DE3)-RIL, purified (Ni Sepharose, TEV cleavage, gel filtration)
B7: Rab27A F81Y, purified (natural protein, human, UniProt P51159 1-221, looked up)
chain: MSDGDYDYLIKFLALGDSGVGKTSVLYQYTDGKFNSKFITTVGIDFREKRVVYRASGPDGATGRGQRIHLQLWDTAGQERYRSLTTAFFRDAMGFLLLFDLTNEQSFLNVRNWISQLQMHAYCENPDIVLCGNKSDLEDQRVVKEEEAIALAEKYGIPYFETSAANGTNISQAIEMLLDLIMKRMERCVDKSWIPEGVVRSNGHASTDQLSEEKEKGACGC
notes: Rab27A, human, with F81Y; also called F81Y Rab27A; source: E. coli, purified
B8: Rab27A, purified (natural protein)
chain: B7 chain with Y81F

Experiments:
Rab34 = biological target: T1, Rab34; assay: nucleotide loading, C18 reversed-phase HPLC of bound nucleotide; type: binding
[1] = biological target: T2, Rep15, full length (natural N101D …); assay: ITC
[2] = biological target: Rep15, full length (natural N101D variant) (human) (UniProt Q6BDI9); assay: ITC; 500/600 µM GppNHp/GTP Rab titrated into 50/60 µM Rep15; 20 mM Hepes 8.0, 50 mM NaCl, 1 mM MgCl2, 1 mM TCEP; one-site-binding model
[3] = biological target: B3; assay: as above; conditions: both partners purified
[4] = biological target: T3, Rab34 Q111L F114Y, purified; assay: ITC
[5] = biological target: T4, Rab34 Q111L 1-237 (dominant active), …; assay: ITC; 500/600 µM GppNHp/GTP Rab titrated into 50/60 µM Rep15; 20 mM Hepes 8.0, 50 mM NaCl, 1 mM MgCl2, 1 mM TCEP; one-site-binding model; conditions: both partners purified
[6] = biological target: T2, Rep15, full length (natural N101D …); assay: ITC; remark: listed apart in the source
[7] = biological target: B3; assay: SEC; analytical SEC; 110 µM Rep15 and 121 µM Rab mixed; Superdex 75 10/300 GL; 20 mM Hepes 8.0, 50 mM NaCl, 1 mM MgCl2, 2 mM DTE; room temperature; conditions: both partners purified
[8] = biological target: B3; assay: fluorescence polarisation; stopped flow, association; mant-GppNHp Rab15 mixed with increasing Rep15 (2.5–25 µM); 25 °C; 20 mM Hepes 8.0, 50 mM NaCl, 2 mM MgCl2, 2 mM DTE; kobs against Rep15 concentration, koff from the intercept, KD as koff/kon; conditions: both partners purified

Molecule: Nc1nc2c(ncn2[C@@H]2O[C@H](COP(=O)(O)OP(=O)(O)NP(=O)(O)O)[C@@H](O)[C@H]2O)c(=O)[nH]1 [GppNHp, Guanosine-5′-[β-γ-Imido]-triphosphate]
nucleotide loading, C18 reversed-phase HPLC of bound nucleotide (Rab34; preparative nucleotide exchange, mixture with GppNH2): apart from GppNHp, Rab34 is also bound to GppNH2 (hydrolysis product of GppNHp)

Molecule: Nc1nc2c(ncn2[C@@H]2O[C@H](COP(=O)(O)OP(N)(=O)O)[C@@H](O)[C@H]2O)c(=O)[nH]1 [GppNH2]
nucleotide loading, C18 reversed-phase HPLC of bound nucleotide (Rab34; formed during loading with GppNHp, mixture with GppNHp): apart from GppNHp, Rab34 is also bound to GppNH2 (hydrolysis product of GppNHp)

Molecule: B1
Kd [1]: 11100 nM
fold reduction in affinity against wild-type Rab3A [2]: 23 fold

Molecule: B2
Kd [1]: 390 nM
binding result [3]: binds

Molecule: B3
Kd [4]: 78.7 nM
Kd [5]: 64 ± 32 nM

Molecule: B4
Kd [6]: 790 nM
binding result [7]: binds

Molecule: B5
Kd [3]: 470 ± 120 nM
stoichiometry N [3]: 1
Kd [8]: 580 nM
koff [8]: 4.73 s⁻¹
kon [8]: 8.16e+06 M⁻¹ s⁻¹

Molecule: B6
Kd [6]: 2160 nM
binding result [7]: binds

Molecule: B7
Kd [1]: 10800 nM
fold increase in affinity against wild-type Rab27A [3]: > 8 fold

Molecule: B8
Kd [1]: 86200 nM

From PMC9308819 (Nature Communications, 2022)
